The test has as its target ILT2 (immunoglobulin-like transcript 2)/CD85j (human (endogenous in peripheral blood CD4+ T cells)) (UniProt Q8NHL6).

Here are results for one substance from article PMC2909260.

Sequence of UniProt Q8NHL6 (Q8NHL6 24-650): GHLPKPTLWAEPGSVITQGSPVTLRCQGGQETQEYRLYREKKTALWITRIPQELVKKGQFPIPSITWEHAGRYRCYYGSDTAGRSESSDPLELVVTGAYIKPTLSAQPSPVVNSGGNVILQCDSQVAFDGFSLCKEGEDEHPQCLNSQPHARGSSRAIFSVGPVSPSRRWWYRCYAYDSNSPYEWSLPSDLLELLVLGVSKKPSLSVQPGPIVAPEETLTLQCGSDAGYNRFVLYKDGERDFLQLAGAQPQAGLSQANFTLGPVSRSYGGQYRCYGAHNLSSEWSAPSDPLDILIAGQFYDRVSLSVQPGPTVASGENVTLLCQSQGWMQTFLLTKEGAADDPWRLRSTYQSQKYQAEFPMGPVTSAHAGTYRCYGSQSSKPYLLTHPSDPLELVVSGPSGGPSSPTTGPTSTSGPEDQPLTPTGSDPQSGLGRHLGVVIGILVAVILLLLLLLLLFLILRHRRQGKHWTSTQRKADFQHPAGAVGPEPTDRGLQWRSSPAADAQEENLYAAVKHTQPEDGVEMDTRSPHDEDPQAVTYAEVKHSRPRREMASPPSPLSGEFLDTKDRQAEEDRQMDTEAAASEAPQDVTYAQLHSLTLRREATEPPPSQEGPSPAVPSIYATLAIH

As for “soluble HLA-G (recombinant HLA-G1/G5 protein) (from UniProt P17693 25-308; P61769 21-119) (complex)”, the % of inhibition of CXCR3 expression (flow cytometry) by sHLA-G on anti-CD3 stimulated CD4+ T cells, with blocking anti-ILT2/CD85j mAb (clone #292319, 1 ug/10^6 cells) added came to 31.5% and the % of inhibition of CXCR3 expression (flow cytometry) by sHLA-G on anti-CD3 stimulated CD4+ T cells, with isotype-matched control mAb added (reference for the anti-ILT2 blocking) stood at 47.5%.
